Assay results as given in US20180244787A1 (Sanofi, published 2018).
Positions count from the first letter of the chain named. Blank lines part the entries; values can stand above or below the binder they belong to.

Target: T1, recombinant human CXCR3 (human, UniProt P49682 1-368, limits assumed)
T1 construct: also called C-X-C motif chemokine receptor 3
T1 sequence (looked up): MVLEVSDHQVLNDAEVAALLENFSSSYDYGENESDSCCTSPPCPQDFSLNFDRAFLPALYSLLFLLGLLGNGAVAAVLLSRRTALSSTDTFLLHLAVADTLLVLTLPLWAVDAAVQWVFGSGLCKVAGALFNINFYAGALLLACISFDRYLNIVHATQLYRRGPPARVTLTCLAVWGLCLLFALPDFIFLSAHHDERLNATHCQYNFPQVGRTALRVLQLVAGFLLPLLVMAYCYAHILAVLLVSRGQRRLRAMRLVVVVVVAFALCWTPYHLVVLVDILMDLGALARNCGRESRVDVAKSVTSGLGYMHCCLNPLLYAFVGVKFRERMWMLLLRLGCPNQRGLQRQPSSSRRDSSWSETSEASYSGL
Experiment: binding kinetics; method and antigen not given

Kd: 0.322 nM | koff: 2.45e-05 s⁻¹ | kon: 75600 M⁻¹ s⁻¹
B1: humanized clone 53 HuAntibody 23 (antibody, V domains shown)
VH: EVQLLESGGGLVQPGGSLRLSCAASGFTFTSYAMSWVRQAPGKGLEWVAVISHGGTYTYYADSVKGRFTISRDNAKNTLYLQMNSLRAEDTAVYYCARHPIYSGNYQGYFDYWGQGTLVTVSS
VL: DIQLTQSPSFLSASVGDRVTITCRASSGVNYLYWYQQKPGKAPKLWIYFTSTLAPGVPSRFSGSGSGNEYTLTISSLQPEDFATYYCQQFTSSPYTFGGGTKLEIK
notes: humanized anti-human CXCR3 mAb

Kd: 1.03 nM | koff: 9.19e-05 s⁻¹ | kon: 88900 M⁻¹ s⁻¹
B2: humanized clone 53 HuAntibody 34 (antibody, V domains shown)
VH: B1 VH
VL: B1 VL with P55S, G99Q
notes: as for B1

Kd: 0.449 nM | koff: 5e-05 s⁻¹ | kon: 111000 M⁻¹ s⁻¹
B3: humanized clone 53 HuAntibody 31 (antibody, V domains shown)
VH: B1 VH with V50T, A61P, V93M
VL: B1 VL with P55S
notes: as for B1

Kd: 0.303 nM | koff: 3.5e-05 s⁻¹ | kon: 115000 M⁻¹ s⁻¹
B4: humanized clone 53 HuAntibody 29 (antibody, V domains shown)
VH: B1 VH with V50T, A61P
VL: B1 VL with G99Q
notes: as for B1

Kd: 0.0614 nM | koff: 6.16e-06 s⁻¹ | kon: 101000 M⁻¹ s⁻¹
B5: humanized clone 53 HuAntibody 24 (antibody, V domains shown)
VH: B1 VH with V50T, A61P, V93M
VL: B1 VL
notes: as for B1

Kd: 0.0456 nM | koff: 4.73e-06 s⁻¹ | kon: 102000 M⁻¹ s⁻¹
B6: humanized clone 53 HuAntibody 35 (antibody, V domains shown)
VH: B1 VH with V50T, A61P, V93M
VL: B1 VL with P55S, G99Q
notes: as for B1

Kd: 0.537 nM | koff: 5.46e-05 s⁻¹ | kon: 101000 M⁻¹ s⁻¹
B7: humanized clone 53 HuAntibody 26 (antibody, V domains shown)
VH: B1 VH
VL: B1 VL with G99Q
notes: as for B1

Kd: 0.656 nM
B8: humanized clone 53 HuAntibody 33 (antibody, V domains shown)
VH: B1 VH with V50T, A61P
VL: B1 VL with P55S
notes: as for B1

Kd: 1.34 nM | koff: 0.000126 s⁻¹ | kon: 93700 M⁻¹ s⁻¹
B9: humanized clone 53 HuAntibody 30 (antibody, V domains shown)
VH: B1 VH
VL: B1 VL with P55S
notes: as for B1

Kd: 0.623 nM | koff: 6.21e-05 s⁻¹ | kon: 99500 M⁻¹ s⁻¹
B10: humanized clone 53 HuAntibody 25 (antibody, V domains shown)
VH: B1 VH with V50T, A61P
VL: B1 VL
notes: as for B1

Kd: 0.0737 nM | koff: 8.34e-06 s⁻¹ | kon: 113000 M⁻¹ s⁻¹
B11: humanized clone 53 HuAntibody 27 (antibody, V domains shown)
VH: B1 VH with V50T, A61P, V93M
VL: B1 VL with G99Q
notes: as for B1
